Residue numbers refer to the chain shown, from its start. Numbers in names are those of the source. Where only a bound is given, the exact number is not on record here.

Assay [1] concerns the target T1, cynomolgus monkey TL1A, soluble, CHO-expressed, residues 72-251 of SEQ ID NO:248 with N-terminal His6-tag (cynomolgus monkey (Macaca fascicularis), UniProt O95150 72-251 (human entry)).
T1 construct: also called MfTL1A; MfTL1A (CHO)
T1 chain: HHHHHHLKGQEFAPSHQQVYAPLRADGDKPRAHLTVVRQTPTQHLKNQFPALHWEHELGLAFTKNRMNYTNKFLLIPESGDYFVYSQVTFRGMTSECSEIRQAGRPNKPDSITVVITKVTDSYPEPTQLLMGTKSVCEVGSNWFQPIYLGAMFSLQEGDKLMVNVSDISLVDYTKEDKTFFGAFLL
The assay is described as follows: ELISA, blocks MfTL1A (500 pM) binding hDR3-Fc; blocking of MfTL1A binding to hDR3. The method, then:
The ability of antibodies to block human TL1A binding to its cognate receptors, the DR3 and DcR3 receptors, was measured using a competition sandwich ELISA. In addition, blocking of a human TL1A variant FHM (human TL1A Q167R) and the cynomolgus monkey (Macaca fascicularis) TL1A (MfTL1A) protein binding to the human DR3 or DcR3 receptors was measured in the same manner. Constant amounts of biotinylated human TL1A or FHM (both expressed with a 6-His tag in CHO cells) or biotinylated MfTL1A (expressed in CHO cells) were separately titrated with varying amounts of antibodies. The antibody-protein complexes were incubated in solution (1 hr, 25° C.) and then transferred to microtiter plates coated with human DR3 (hDR3) or human DcR3 (hDcR3) expressed as human IgG1 Fc fusion proteins. After one hour at 25° C. the wells were washed, and bound human or monkey TL1A was detected with streptavidin conjugated with horseradish peroxidase (HRP). Wells were developed with a TMB solution to produce a colorimetric reaction and quenched with aqueous sulfuric acid before reading absorbance at 450 nm on a Perkin-Elmer Victor X5 plate reader. A sigmoidal dose-response curve was fit to the data using the Prism™ data analysis package. […]

Assay [2] addresses T2, human TL1A, soluble, CHO-expressed, residues 72-251 of SEQ ID NO:244 with N-terminal His6-tag (human, UniProt O95150 72-251).
T2 construct: also called hTL1A; hTL1A (CHO)
T2 sequence: T1 chain with L45F, V84I
The assay is described as follows: SPR 25C, mAb captured; kd set at 1e-6 1/s; 25 C; kd set at 1x10^-6 1/s. The method, then:
(§1) Measurements were conducted on a T100 BIACORE™ instrument. […] Kinetic association (kₐ) and dissociation (kd) rate constants were determined by fitting the data to a 1:1 binding model using BIAevaluation 4.1 curve fitting software (BIAcore Life Sciences). Molar concentrations of TL1A/Fhm used in the data fitting assumed a monomeric state for TL1A in solution. Binding dissociation equilibrium constants (KD) and dissociative half-lives (t_{1/2}) were calculated from the kinetic rate constants as: KD (M)=kd/kₐ; and t_{1/2} (min)=[In2/(60*kd)].

The target of assay [3] is T2, human TL1A, soluble, CHO-expressed, …. The assay is described as follows: SPR 25C, mAb captured; kd set at 1e-6 1/s. On the procedure: as §1
Assay [4] deals with T1, cynomolgus monkey TL1A, soluble, …. The assay is described as follows: SPR 37C, mAb captured; SPR, 37 C. The method, then:
as §1

The target of assay [5] is T3, Fhm, hTL1A(Q167R), soluble, CHO-expressed, residues 72-251 of SEQ ID NO:246 (human, UniProt O95150 72-251).
T3 construct: also called Fhm (CHO); FHM (CHO)
T3 chain: T1 chain with L45F, V84I, Q102R
The assay is described as follows: ELISA, blocks FHM (10 pM) binding hDcR3-Fc; blocking of FHM binding to DcR3. The method, then: The ability of antibodies to block human TL1A binding to its cognate receptors, the DR3 and DcR3 receptors, was measured using a competition sandwich ELISA. In addition, blocking of a human TL1A variant FHM (human TL1A Q167R) and the cynomolgus monkey (Macaca fascicularis) TL1A (MfTL1A) protein binding to the human DR3 or DcR3 receptors was measured in the same manner. Constant amounts of biotinylated human TL1A or FHM (both expressed with a 6-His tag in CHO cells) or biotinylated MfTL1A (expressed in CHO cells) were separately titrated with varying amounts of antibodies. The antibody-protein complexes were incubated in solution (1 hr, 25° C.) and then transferred to microtiter plates coated with human DR3 (hDR3) or human DcR3 (hDcR3) expressed as human IgG1 Fc fusion proteins. After one hour at 25° C. the wells were washed, and bound human or monkey TL1A was detected with streptavidin conjugated with horseradish peroxidase (HRP). Wells were developed with a TMB solution to produce a colorimetric reaction and quenched with aqueous sulfuric acid before reading absorbance at 450 nm on a Perkin-Elmer Victor X5 plate reader. A sigmoidal dose-response curve was fit to the data using the Prism™ data analysis package. […] Both fully human anti-hTL1A mAbs and comparator antibodies, i.e., control mAb1 (an anti-hTL1A antibody with heavy and light chain variable domains having the amino acid sequences corresponding to SEQ ID NOS:21 and 27, respectively, of US 2009/0280116) and control mAb3 (an anti-hTL1A antibody with heavy and light chain variable domains having the amino acid sequences corresponding to SEQ ID NOS:57 and 48, respectively, of US 2009/0280116), were included in the study. NB: No binding under the conditions tested; NT: Not tested. Concentrations of biotinylated soluble ligands: (1) 150 pM; (2) 500 pM; (3) 10 pM; and (4) 50 pM.
(In general: An ELISA detects its analyte on a solid surface through an enzyme-linked reagent.)

Assay [6] addresses T4, rat TL1A, soluble, CHO-expressed, residues 76-252 of SEQ ID NO:258 with N-terminal His6-tag (rat, UniProt Q8K3Y7 76-252).
T4 construct: also called rTL1A; rTL1A (CHO)
T4 sequence: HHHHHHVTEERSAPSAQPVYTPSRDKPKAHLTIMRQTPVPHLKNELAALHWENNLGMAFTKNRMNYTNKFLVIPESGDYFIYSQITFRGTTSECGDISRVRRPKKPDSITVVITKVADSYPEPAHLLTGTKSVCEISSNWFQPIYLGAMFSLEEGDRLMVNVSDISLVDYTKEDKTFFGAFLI
The assay is described as follows: SPR 37C, mAb captured; kd set at 1e-6 1/s. On the procedure: as §1

For assay [7], the target named is T5, mouse TL1A, soluble, CHO-expressed, residues 76-252 of SEQ ID NO:250 with N-terminal His6-tag (mouse, UniProt Q5UBV8 76-252).
T5 construct: also called mTL1A; mTL1A (CHO)
T5 sequence: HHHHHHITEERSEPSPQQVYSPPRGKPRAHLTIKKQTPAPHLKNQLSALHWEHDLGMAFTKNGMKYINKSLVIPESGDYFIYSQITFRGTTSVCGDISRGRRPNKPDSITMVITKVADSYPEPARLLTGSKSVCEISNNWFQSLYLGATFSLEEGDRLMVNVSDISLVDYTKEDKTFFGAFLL
The assay is described as follows: SPR 25C, mAb captured; 25 C, CHO-expressed mTL1A, SPR. The method, then:
as §1

B1: H4H1750P (antibody, human IgG4 S228P, V domains shown)
VH: QVQLVESGGGVVQPGRSLRLSCVASGFTFSNYGMHWVRQAPGKGLEWVAVISYDGNNDLYSDSVKGRFTISRDNAKNALSLQMTSLRAEDTAVYYCARDSTMTPYYYHGIDVWGQGTTVTVSA
VL: DIQMTQSPSSLSASVGDRVTITCRASQDIRNDLGWYQQKPGKAPKRLIYAASSLQSGVPSRFSGSGSGTDFTLTISSLQPEDFATYYCLQHNSYPPTFGQGTKVEIK
In assay [1], B1 came in with an IC50 of 5.21 nM. The figures for the dissociation constant (Kd) in assay [2] and in assay [4] were at most 0.0158 nM and 17.1 nM, respectively. In addition, the t1/2 in assay [3] was at least 192 h; in assay [4], 11 min.

B2: H4H1681N (antibody, human IgG4 S228P, V domains shown)
VH: EVQLLESGGGLVQPGKSLRLSCAVSGFTFSTYGMNWVRQAPGKGLEWVSSISGTGRTTYHADSVQGRFTVSRDNSKNILYLQMNSLRADDTAVYFCTKERGDYYYGVFDYWGQGTLVTVSS
VL: DIQMTQSPSTLSASVGDRVTITCRASQTISSWLAWYQQTPEKAPKLLIYAASNLQSGVPSRFSGSGSGTEFTLTISSLQPDDFATYYCQQYHRSWTFGQGTKVEIT
On to B2, for which the IC50 in assay [5] was found to be 0.09 nM.

B3: H4H1818N (antibody, human IgG4 S228P, V domains shown)
VH: RLQLVESGGGLVKPGGSLKLSCAASGFTISDYYMSWIRQAPGKGLEWVSYIGGSGSTIYYADSVKGRFTISRDNAKNSLYLQMNSLRAEDTAVYYCAREDADSYYYYGMDVWGQGTTVTVSS
VL: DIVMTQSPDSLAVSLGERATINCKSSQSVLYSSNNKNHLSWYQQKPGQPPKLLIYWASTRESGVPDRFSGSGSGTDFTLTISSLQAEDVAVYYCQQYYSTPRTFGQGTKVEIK
notes: human IgG4(S108P) form of H2M1818N
In assay [6], B3 displayed a Kd of at most 0.00061 nM and a t1/2 of at least 192 h. In assay [7], this molecule returned a dissociation constant Kd of 7.1 nM and a t1/2 of 12 min.

B4: H4H1805N (antibody, human IgG4 S228P, V domains shown)
VH: QVQLQQWGAGLLKPSETLSLTCAVYGGSFTGFYWSWIRQPPGKGLEWIGEINHRGNTNYNPSLKSRVTMSVDTSKNQFSLNMISVTAADTAMYFCASPFYDFWSGSDYWGQGTLVTVSS
VL: DIMLTQTPLTSPVTLGQPASISCKSSQSLVHSDGNTYLSWLQQRPGQPPRLLFYKISNRFSGVPDRFSGSGAGTDFTLKISRVEAEDVGVYYCMQATQFPLTFGGGTKVEIK
notes: human IgG4(S108P) form of H2M1805N
With B4, in assay [5], the IC50 worked out at 0.436 nM.

A word on the IC50: it is the concentration that inhibits the measured activity by half. Usually Kd stands for the constant that tells how readily two partners part at equilibrium.
